US20240125796A1

Columns and labels:
[1] = target: Herceptin antibody labelled with biotin; assay: mass photometry; first 500 s after 25 mM free biotin, compared with the PBS control
[2] = target: Herceptin antibody labelled with biotin; assay: mass photometry; consecutive measurement with 25 mM free biotin, release of Herc-B from immobilised streptavidin
[3] = target: Herceptin antibody labelled with biotin; assay: mass photometry; control with PBS as release agent, streptavidin-coated coverslip loaded with Herc-B
[4] = target: Herceptin antibody labelled with biotin; assay: mass photometry; first 500 s after 25 mM free biotin, release of Herc-B from immobilised streptavidin
[5] = target: Herceptin antibody labelled with biotin; assay: mass photometry; consecutive measurement with 25 mM free biotin, compared with the PBS control

Percentage increase to control [1]: 90.5%
Difference UB - B [2]: 84 counts
Unbinding (UB) events, MW 76 to 273 kDa [2]: 565 counts
Difference UB - B [3]: 17 counts
Unbinding (UB) events, MW 76 to 273 kDa [3]: 161 counts
Difference UB - B [4]: 179 counts
Unbinding (UB) events, MW 76 to 273 kDa [4]: 460 counts
Percentage increase to control [5]: 79.8%
Substance: streptavidin (from UniProt P22629 37-163)
